The labels stand for the following.
B2: Regulator of Ty1 Transposition 105 (Rtt105) (natural protein, S. cerevisiae, UniProt P40063 1-208, looked up)
chain: MYSNHNLNSDDCCFDWNEEKAAELQRTGVSFDRSLTPQSLRTSTRRLSEENKQQSGTMHIDTSPSVVSDIISSRRDRSQDFFGPHSSSPIAPSERQRADQRSRLESMRLTRRRDKMTKVRGGLEKMEEMIMQGEHLREMQRLKQEAQKNALPSDMAEYMEWQNNEDLEDDELLAFIEKQETYKNELEHFLNNANKNVYENNSYPNSHT
notes: Rtt105, S. cerevisiae, a 24 kDa protein; RSF-Duet1 plasmid; also called Rtt105^WT; unlabeled Rtt105

Data set [1] deals with B2. The data set can be described thus: other fluorescence titration; MB543 fluorescence quenching; 200 nM fluorescent RPA or F-A-B in the cuvette, unlabeled Rtt105 added stepwise; 23 °C; 30 mM HEPES pH 7.8, 100 mM KCl, 6% glycerol, 5 mM MgCl2, 1 mM βME; quadratic fit, apparent KD. The conditions noted are these: both partners purified.
Data set [2] addresses T1, Replication Protein A (RPA), S. cerevisiae heterotrimer of RPA70, RPA32 and RPA14 (S. cerevisiae, UniProt P22336 1-621; P26754 1-273; P26755 1-122).
T1 construct: RPA70 (Rfa1), large subunit of S. cerevisiae RPA; holds OB-F, DBD-A, DBD-B and DBD-C; RPA32 (Rfa2), middle subunit of S. cerevisiae RPA; holds DBD-D and the winged-helix domain; RPA14 (Rfa3), small subunit of S. cerevisiae RPA; holds OB-E; also called yeast RPA; unlabeled RPA; copies: + +
Description: cross-linking; BS3 (5 mM) cross-linking of RPA with Rtt105 in 30 mM HEPES, 200 mM KCl, pH 7.8; SDS-PAGE shift and mass spectrometry of cross-linked peptides (XL-MS). The conditions noted are these: both partners purified.

The target in data set [3] is RPA-DBD-A^MB543 (S. cerevisiae) (UniProt P22336). Description: other fluorescence titration; MB543 fluorescence quenching; 200 nM fluorescent RPA or F-A-B in the cuvette, unlabeled Rtt105 added stepwise; 23 °C; 30 mM HEPES pH 7.8, 100 mM KCl, 6% glycerol, 5 mM MgCl2, 1 mM βME; quadratic fit, apparent KD.
For a further data set, the target named is RPA-DBD-A-Cy5 (Saccharomyces cerevisiae, UniProt P22336;P26754;P26755 1-621;1-273;1-122). Description: stopped-flow FRET; no Rtt105; kobs1 18.2, kobs2 2.7 s-1; EMSA: 25 mM Tris-Cl pH 7.5, 200 mM NaCl, 5 mM MgCl2, 5% glycerol, 0.05% Tween-20, 25 C; anisotropy/FRET: 30 mM HEPES pH 7.8, 100 mM KCl, 6% glycerol, 5 mM MgCl2, 1 mM bME, 23 C (stopped flow 25 C). The following applies: protein: recombinant; tags: Cy5 on DBD-A via 4AZP; copies: 1;1;1; label: 5'-Cy3. For orientation: In EMSA bound probe runs differently from free probe, usually more slowly.
RPA-DBD-A-Cy5, sequence (P26754 whole entry, chain 2 of 2): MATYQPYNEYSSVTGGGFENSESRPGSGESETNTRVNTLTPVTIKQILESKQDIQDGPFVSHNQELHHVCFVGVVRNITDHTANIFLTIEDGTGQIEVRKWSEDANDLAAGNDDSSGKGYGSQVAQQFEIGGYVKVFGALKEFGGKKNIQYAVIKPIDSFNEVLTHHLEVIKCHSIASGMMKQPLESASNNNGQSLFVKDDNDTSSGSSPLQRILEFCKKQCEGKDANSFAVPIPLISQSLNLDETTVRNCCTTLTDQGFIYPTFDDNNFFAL
RPA-DBD-A-Cy5, sequence (P26755 whole entry, chain 3 of 2): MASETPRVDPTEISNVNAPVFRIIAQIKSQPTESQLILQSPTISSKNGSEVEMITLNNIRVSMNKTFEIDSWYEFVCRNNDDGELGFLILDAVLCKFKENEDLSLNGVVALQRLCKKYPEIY

Another data set concerns the target RPA-DBD-A-Cy5;Rtt105 (Saccharomyces cerevisiae;Saccharomyces …, UniProt P22336;P26754;P26755;P40063 1-621;1-273;1-122;1-208, |). The data set can be described thus: stopped-flow FRET; with Rtt105; kobs1 15, kobs2 1.9 s-1; EMSA: 25 mM Tris-Cl pH 7.5, 200 mM NaCl, 5 mM MgCl2, 5% glycerol, 0.05% Tween-20, 25 C; anisotropy/FRET: 30 mM HEPES pH 7.8, 100 mM KCl, 6% glycerol, 5 mM MgCl2, 1 mM bME, 23 C (stopped flow 25 C). The conditions noted are these: protein: recombinant;recombinant; tags: Cy5 on DBD-A via 4AZP;; copies: 1;1;1;1; label: 5'-Cy3.

The target in a further data set is RPA-DBD-D-Cy5;Rtt105 (Saccharomyces cerevisiae;Saccharomyces …, UniProt P22336;P26754;P26755;P40063 1-621;1-273;1-122;1-208, |). Description: stopped-flow FRET; with Rtt105; kobs1 0.5, kobs2 48, kobs3 3.6 s-1; EMSA: 25 mM Tris-Cl pH 7.5, 200 mM NaCl, 5 mM MgCl2, 5% glycerol, 0.05% Tween-20, 25 C; anisotropy/FRET: 30 mM HEPES pH 7.8, 100 mM KCl, 6% glycerol, 5 mM MgCl2, 1 mM bME, 23 C (stopped flow 25 C). The conditions noted are these: protein: recombinant;recombinant; tags: Cy5 on DBD-D via 4AZP;; copies: 1;1;1;1; label: 3'-Cy3.
RPA-DBD-D-Cy5;Rtt105, sequence (P26754 whole entry, chain 2 of 2): as the sequence (P26754 whole entry, chain 2 of 2) above
RPA-DBD-D-Cy5;Rtt105, sequence (P26755 whole entry, chain 3 of 2): as the sequence (P26755 whole entry, chain 3 of 2) above

The target in the next data set is RPA-DBD-D-Cy5 (Saccharomyces cerevisiae, UniProt P22336;P26754;P26755 1-621;1-273;1-122). Description: stopped-flow FRET; no Rtt105; kobs1 100.3, kobs2 16, kobs3 1.4 s-1; EMSA: 25 mM Tris-Cl pH 7.5, 200 mM NaCl, 5 mM MgCl2, 5% glycerol, 0.05% Tween-20, 25 C; anisotropy/FRET: 30 mM HEPES pH 7.8, 100 mM KCl, 6% glycerol, 5 mM MgCl2, 1 mM bME, 23 C (stopped flow 25 C). The conditions noted are these: protein: recombinant; tags: Cy5 on DBD-D via 4AZP; copies: 1;1;1; label: 3'-Cy3.
RPA-DBD-D-Cy5, sequence (P26754 whole entry, chain 2 of 2): as the sequence (P26754 whole entry, chain 2 of 2) above
RPA-DBD-D-Cy5, sequence (P26755 whole entry, chain 3 of 2): as the sequence (P26755 whole entry, chain 3 of 2) above

Data set [4] addresses T2, RPA (RPA70/RPA32/RPA14) (Saccharomyces cerevisiae, UniProt P22336;P26754;P26755 1-621;1-273;1-122). The data set can be described thus: competition; facilitated exchange: excess free RPA displaces prebound labeled RPA; EMSA: 25 mM Tris-Cl pH 7.5, 200 mM NaCl, 5 mM MgCl2, 5% glycerol, 0.05% Tween-20, 25 C; anisotropy/FRET: 30 mM HEPES pH 7.8, 100 mM KCl, 6% glycerol, 5 mM MgCl2, 1 mM bME, 23 C (stopped flow 25 C). The following applies: protein: recombinant; copies: 1;1;1.
Target sequence in this assay (P26754 whole entry, chain 2 of 2): as the sequence (P26754 whole entry, chain 2 of 2) above
Target sequence in this assay (P26755 whole entry, chain 3 of 2): as the sequence (P26755 whole entry, chain 3 of 2) above

Data set [5] has as its target T2, RPA (RPA70/RPA32/RPA14). Description: EMSA; no Rtt105; 5 mM MgCl2; stoichiometric, apparent Kd; EMSA: 25 mM Tris-Cl pH 7.5, 200 mM NaCl, 5 mM MgCl2, 5% glycerol, 0.05% Tween-20, 25 C; anisotropy/FRET: 30 mM HEPES pH 7.8, 100 mM KCl, 6% glycerol, 5 mM MgCl2, 1 mM bME, 23 C (stopped flow 25 C). The conditions noted are these: protein: recombinant; copies: 1;1;1; label: 5'-Cy5.
Target sequence in this assay (P22336 whole entry, chain 1 of 3): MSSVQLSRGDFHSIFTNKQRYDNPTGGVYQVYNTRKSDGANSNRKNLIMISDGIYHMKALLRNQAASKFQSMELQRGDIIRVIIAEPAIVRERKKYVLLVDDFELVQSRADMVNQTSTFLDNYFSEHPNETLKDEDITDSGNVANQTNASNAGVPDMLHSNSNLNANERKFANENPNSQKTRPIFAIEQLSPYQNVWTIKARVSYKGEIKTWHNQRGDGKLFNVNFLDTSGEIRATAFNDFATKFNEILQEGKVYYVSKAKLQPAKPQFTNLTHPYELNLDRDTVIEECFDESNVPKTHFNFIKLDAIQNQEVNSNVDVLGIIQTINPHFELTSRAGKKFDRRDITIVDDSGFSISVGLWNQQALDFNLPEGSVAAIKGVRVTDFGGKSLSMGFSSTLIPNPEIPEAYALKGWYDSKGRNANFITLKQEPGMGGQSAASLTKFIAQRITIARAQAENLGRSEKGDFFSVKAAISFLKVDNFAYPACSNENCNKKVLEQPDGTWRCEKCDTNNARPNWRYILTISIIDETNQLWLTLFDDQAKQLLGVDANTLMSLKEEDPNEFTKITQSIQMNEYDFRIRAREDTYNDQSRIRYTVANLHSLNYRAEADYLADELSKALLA
Target sequence in this assay (P26754 whole entry, chain 2 of 3): as the sequence (P26754 whole entry, chain 2 of 2) above
Target sequence in this assay (P26755 whole entry, chain 3 of 3): as the sequence (P26755 whole entry, chain 3 of 2) above

Data set [6] has as its target RPA (RPA70/RPA32/RPA14);Rtt105 (Saccharomyces cerevisiae;Saccharomyces …, UniProt P22336;P26754;P26755;P40063 1-621;1-273;1-122;1-208, |). The data set can be described thus: EMSA; Rtt105 premixed 1:1; 5 mM MgCl2; stoichiometric, apparent Kd; EMSA: 25 mM Tris-Cl pH 7.5, 200 mM NaCl, 5 mM MgCl2, 5% glycerol, 0.05% Tween-20, 25 C; anisotropy/FRET: 30 mM HEPES pH 7.8, 100 mM KCl, 6% glycerol, 5 mM MgCl2, 1 mM bME, 23 C (stopped flow 25 C). The following applies: protein: recombinant;recombinant; tags: ;; copies: 1;1;1;1; label: 5'-Cy5.

Another data set has as its target hRPA;RPAIN (human;human, UniProt P27694;P15927;P35244;Q86UA6 1-616;1-270;1-121;1-219, |). The data set can be described thus: fluorescence anisotropy; 20 nM DNA; stoichiometric; hRPA:RPAIN 1:2; EMSA: 25 mM Tris-Cl pH 7.5, 200 mM NaCl, 5 mM MgCl2, 5% glycerol, 0.05% Tween-20, 25 C; anisotropy/FRET: 30 mM HEPES pH 7.8, 100 mM KCl, 6% glycerol, 5 mM MgCl2, 1 mM bME, 23 C (stopped flow 25 C). The following applies: protein: recombinant;recombinant; tags: ;N-terminal SUMO tag removed; copies: 1;1;1;2; label: 5'-FAM. (In general: In fluorescence polarisation assays a small probe gives low polarisation when free and higher when bound to something large.)

The next data set concerns the target hRPA (human, UniProt P27694;P15927;P35244 1-616;1-270;1-121). Description: fluorescence anisotropy; 20 nM DNA; stoichiometric; no RPAIN; EMSA: 25 mM Tris-Cl pH 7.5, 200 mM NaCl, 5 mM MgCl2, 5% glycerol, 0.05% Tween-20, 25 C; anisotropy/FRET: 30 mM HEPES pH 7.8, 100 mM KCl, 6% glycerol, 5 mM MgCl2, 1 mM bME, 23 C (stopped flow 25 C). The following applies: protein: recombinant; copies: 1;1;1; label: 5'-FAM.

Data set [7] addresses RPA-DBD-D^MB543 (S. cerevisiae) (UniProt P22336). The data set can be described thus: optical tweezers with confocal fluorescence (C-trap); Rtt105^Cy5-RPA premixed 1:1, incubated with stretched lambda ssDNA, then moved to a buffer channel; 30 mM HEPES pH 7.8, 100 mM KCl, 6% glycerol, 5 mM MgCl2.
In data set [8] the target is RPA-DBD-A^Cy3 (S. cerevisiae) (UniProt P22336). The data set can be described thus: FRET or BRET; stopped-flow FRET, Cy3 excited at 535 nm, Cy5 emission; 100 nM each of RPA^Cy3 and Rtt105^Cy5; 25 °C; RPA reaction buffer; no DNA. (In general: In BRET a luciferase serves as donor, and the signal depends on an acceptor being close.)
For data set [9], the target named is RPA-DBD-D^Cy3 (S. cerevisiae) (UniProt P22336). Described as above.
The target in data set [10] is T1, Replication Protein A (RPA), S. …. The data set can be described thus: AUC; sedimentation velocity as a14; Rtt105^Cy5, RPA and Rad52 mixed in equimolar concentrations, no ssDNA; 280 nm and 650 nm. The following applies: both partners purified.

T1 sequence (P26754 whole entry, chain 2 of 2, the tested form may be a part): as the sequence (P26754 whole entry, chain 2 of 2) above
T1 sequence (P26755 whole entry, chain 3 of 2, the tested form may be a part): as the sequence (P26755 whole entry, chain 3 of 2) above
RPA-DBD-A-Cy5;Rtt105, sequence (P26754 whole entry, chain 2 of 2): as the sequence (P26754 whole entry, chain 2 of 2) above
RPA-DBD-A-Cy5;Rtt105, sequence (P26755 whole entry, chain 3 of 2): as the sequence (P26755 whole entry, chain 3 of 2) above
RPA (RPA70/RPA32/RPA14);Rtt105, sequence (P22336 whole entry, chain 1 of 4, one chain of several): as the sequence (P22336 whole entry, chain 1 of 3) above
RPA (RPA70/RPA32/RPA14);Rtt105, sequence (P26754 whole entry, chain 2 of 4, one chain of several): as the sequence (P26754 whole entry, chain 2 of 2) above
RPA (RPA70/RPA32/RPA14);Rtt105, sequence (P26755 whole entry, chain 3 of 4, one chain of several): as the sequence (P26755 whole entry, chain 3 of 2) above
hRPA;RPAIN, sequence (P27694 whole entry, chain 1 of 4): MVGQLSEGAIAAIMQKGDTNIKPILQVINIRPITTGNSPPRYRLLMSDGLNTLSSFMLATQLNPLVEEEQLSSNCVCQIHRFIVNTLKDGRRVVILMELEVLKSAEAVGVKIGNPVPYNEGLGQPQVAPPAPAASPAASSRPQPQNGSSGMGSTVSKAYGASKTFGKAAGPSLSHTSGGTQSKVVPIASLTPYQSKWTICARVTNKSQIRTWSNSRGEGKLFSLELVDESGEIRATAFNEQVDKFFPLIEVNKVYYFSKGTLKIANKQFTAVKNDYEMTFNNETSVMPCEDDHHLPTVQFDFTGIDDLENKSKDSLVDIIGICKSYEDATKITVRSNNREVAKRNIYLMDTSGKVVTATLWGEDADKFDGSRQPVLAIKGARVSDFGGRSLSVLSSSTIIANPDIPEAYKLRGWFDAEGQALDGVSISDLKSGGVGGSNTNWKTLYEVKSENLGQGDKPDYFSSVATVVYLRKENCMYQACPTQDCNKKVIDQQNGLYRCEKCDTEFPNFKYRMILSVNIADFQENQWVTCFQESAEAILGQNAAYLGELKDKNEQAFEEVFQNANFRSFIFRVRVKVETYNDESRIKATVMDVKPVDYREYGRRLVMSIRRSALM
hRPA;RPAIN, sequence (P15927 whole entry, chain 2 of 4): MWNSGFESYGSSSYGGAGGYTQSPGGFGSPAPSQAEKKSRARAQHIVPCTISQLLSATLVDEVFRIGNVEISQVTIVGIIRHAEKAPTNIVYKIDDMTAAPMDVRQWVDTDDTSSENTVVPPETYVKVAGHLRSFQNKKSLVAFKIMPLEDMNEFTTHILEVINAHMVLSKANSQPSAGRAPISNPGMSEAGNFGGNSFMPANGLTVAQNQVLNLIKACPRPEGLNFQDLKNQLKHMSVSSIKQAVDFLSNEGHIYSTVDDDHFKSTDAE
hRPA;RPAIN, sequence (P35244 whole entry, chain 3 of 4): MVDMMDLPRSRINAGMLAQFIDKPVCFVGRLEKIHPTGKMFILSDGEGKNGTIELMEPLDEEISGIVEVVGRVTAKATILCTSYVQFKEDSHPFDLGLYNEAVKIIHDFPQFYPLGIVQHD
hRPA;RPAIN, sequence (Q86UA6 whole entry, chain 4 of 4): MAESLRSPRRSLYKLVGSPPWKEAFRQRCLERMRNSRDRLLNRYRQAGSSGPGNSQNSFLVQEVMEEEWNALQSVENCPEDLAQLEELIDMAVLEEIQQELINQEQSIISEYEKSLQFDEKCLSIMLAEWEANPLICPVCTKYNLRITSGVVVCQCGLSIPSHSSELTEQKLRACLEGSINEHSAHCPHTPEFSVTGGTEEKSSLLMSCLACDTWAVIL
hRPA, sequence (P27694 whole entry, chain 1 of 3): as the sequence (P27694 whole entry, chain 1 of 4) above
hRPA, sequence (P15927 whole entry, chain 2 of 3): as the sequence (P15927 whole entry, chain 2 of 4) above
hRPA, sequence (P35244 whole entry, chain 3 of 3): as the sequence (P35244 whole entry, chain 3 of 4) above

B1: F-A-B-DBD-A^MB543 (domain or fragment)
chain: MSSVQLSRGDFHSIFTNKQRYDNPTGGVYQVYNTRKSDGANSNRKNLIMISDGIYHMKALLRNQAASKFQSMELQRGDIIRVIIAEPAIVRERKKYVLLVDDFELVQSRADMVNQTSTFLDNYFSEHPNETLKDEDITDSGNVANQTNASNAGVPDMLHSNSNLNANERKFANENPNSQKTRPIFAIEQLSPYQNVWTIKARVSYKGEIKTWHNQRGDGKLFNVNFLDTSGEIRATAFNDFATKFNEILQEGKVYYVSKAKLQPAKPQFTNLTHPYELNLDRDTVIEECFDESNVPKTHFNFIKLDAIQNQEVNSNVDVLGIIQTINPHFELTSRAGKKFDRRDITIVDDSGFSISVGLWNQQALDFNLPEGSVAAIKGVRVTDFGGKSLSMGFSSTLIPNPEIPEAYALKGWYDSKGRNANFITL
modifications: 4-azidophenylalanine (4AZP) in DBD-A carrying the MB543 fluorophore; position not given
For the molecule B1, the Kd in data set [1] turned out to be 33.9 nM.
On to B2, for which, in data set [2], the binding result is recorded as “binds”. Further, the Kd in data set [3] was 61.1 nM.

B3: 5'-Cy3-(dT)40 (ssDNA)
DNA: TTTTTTTTTTTTTTTTTTTTTTTTTTTTTTTTTTTTTTTT
Take B3: the binding result in the data set with RPA-DBD-A-Cy5 and in the data set with RPA-DBD-A-Cy5;Rtt105 was “binds” throughout.

B4: 3'-Cy3-(dT)40 (ssDNA)
DNA: TTTTTTTTTTTTTTTTTTTTTTTTTTTTTTTTTTTTTTTT
As for B4, the binding result with RPA-DBD-D-Cy5;Rtt105 and with RPA-DBD-D-Cy5 was “binds” in each case.

B5: (dT)97 (ssDNA)
DNA: TTTTTTTTTTTTTTTTTTTTTTTTTTTTTTTTTTTTTTTTTTTTTTTTTTTTTTTTTTTTTTTTTTTTTTTTTTTTTTTTTTTTTTTTTTTTTTTTT
For the molecule B5, the binding result in the data set with RPA (RPA70/RPA32/RPA14) [4] is on record as “binds”.

B6: 5'-Cy5-(dT)30 (ssDNA)
DNA: TTTTTTTTTTTTTTTTTTTTTTTTTTTTTT
Take B6: the Kd with RPA (RPA70/RPA32/RPA14) [5] amounted to 5 ± 0.7 nM; in data set [6], 5.7 ± 1.2 nM.

B7: 5'-FAM-(dT)25 (ssDNA)
DNA: TTTTTTTTTTTTTTTTTTTTTTTTT
In the case of B7, the binding result with hRPA;RPAIN and in the data set with hRPA was “binds” each time.

B8: Rtt105^Cy5 (Rtt105^C13S labeled with Cy5 on Cys-12) (natural protein, S. cerevisiae, UniProt P40063 1-208, looked up)
chain: MYSNHNLNSDDCSFDWNEEKAAELQRTGVSFDRSLTPQSLRTSTRRLSEENKQQSGTMHIDTSPSVVSDIISSRRDRSQDFFGPHSSSPIAPSERQRADQRSRLESMRLTRRRDKMTKVRGGLEKMEEMIMQGEHLREMQRLKQEAQKNALPSDMAEYMEWQNNEDLEDDELLAFIEKQETYKNELEHFLNNANKNVYENNSYPNSHT
modifications: Cy5 (maleimide chemistry) on Cys-12
notes: Rtt105, S. cerevisiae, single-Cys version; also called Cy5-labeled Rtt105; fluorescent Rtt105; source: E. coli, purified similar to the wild-type protein, labeled with Cy5-maleimide
For the molecule B8, the t1/2 of dissociation from RPA on ssDNA in data set [7] turned out to be 5 s. Besides, in [8], the kobs (single-step model) amounted to 0.2 s⁻¹. Moreover, in [9], the kobs,1 (two-step model) amounted to 3.5 s⁻¹ and the kobs,2 (two-step model) is 0.2 s⁻¹. Besides, the binding result in [10] was “binds”.

The values above are taken from publication PMC9440123, “Rtt105 regulates RPA function by configurationally stapling the flexible domains” (Nature Communications, 2022).
